In article PMC6888739, “SiMYB3 in Foxtail Millet (Setaria italica) Confers Tolerance to Low-Nitrogen Stress by Regulating Root Growth in Transgenic Plants”:

Target: T1, SiMYB3 (Setaria italica, UniProt K3YEJ5 1-315)
T1 sequence: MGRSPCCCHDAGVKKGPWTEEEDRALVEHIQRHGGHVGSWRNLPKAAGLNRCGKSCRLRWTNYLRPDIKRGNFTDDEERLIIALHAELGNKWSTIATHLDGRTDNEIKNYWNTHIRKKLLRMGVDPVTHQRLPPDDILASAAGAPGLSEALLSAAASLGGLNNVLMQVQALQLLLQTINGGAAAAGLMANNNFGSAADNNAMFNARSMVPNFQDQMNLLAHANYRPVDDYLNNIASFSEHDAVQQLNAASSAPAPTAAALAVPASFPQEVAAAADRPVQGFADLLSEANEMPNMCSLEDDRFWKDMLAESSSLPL
Test: EMSA; EMSA 20 uL: 30 ng GST-SiMYB3, 400 fmol biotin probe, 10 mM Tris pH 7.5, 50 mM KCl, 1 mM DTT, 2.5% glycerol, 5 mM MgCl2, 50 ng/uL poly(dI-dC), 0.05% NP-40; temperature not stated
Conditions: protein: recombinant; label: biotin

B1: OsFIB promoter MYB-motif probe (dsDNA)
DNA 1: GCGATAGAATGTGTCGTATCCCGAGCTAGTTTTGTTCGAACATACAGCC
DNA 2: GGCTGTATGTTCGAACAAAACTAGCTCGGGATACGACACATTCTATCGC
  binding result: binds

B2: TAR2 promoter mutant probe (dsDNA)
DNA 1: TTAAGTACATGATTAATTAACGTAATCCAATA
DNA 2: TATTGGATTACGTTAATTAATCATGTACTTAA
  binding result: no binding

B3: TAR2 promoter MYB-element probe (dsDNA)
DNA 1: TTAAGTACATGAGTTAGGTTCGTAATCCAATA
DNA 2: TATTGGATTACGAACCTAACTCATGTACTTAA
  binding result: binds
